{"source": "the DeepSol protein solubility set", "data": [{"assay": "soluble on expression in E. coli; label from the status in PepcDB or PDB records", "values": [{"sequence": "MGSDKIHHHHHHLRLFGTKDEQLFMLFSESARVVVRGGDILQNVVNDYSDLDIKMAKLTAMEHEGDRIIQELIRRLNTSFILPFDREDAFQLAQKLSTTLDYITGIIDRMILYKTGRPNKRVKEMVNVLCEALFLQERALNLLQSLEHNKREILECCEEIRQLERKQDNHYRQGLALLFENEEEPIVIIKWREVYEHIEMAQDYVQDVAELISNICVKYS", "soluble on expression in E. coli": "not soluble"}, {"sequence": "MTLGARLVAPMIILLLFIPIELVKAEVITLTPETFSDKIKEKDTAWFVKFCVPWCKHCKKLGNLWEDLGKAMEGDDEIEVGEVDCGTSRAVCTKVEIHSYPTFMLFYNGEEVSKYKGKRDVESLKAFVVEETEKAAEKAQLEDKEL", "soluble on expression in E. coli": "soluble"}, {"sequence": "MHHHHHHRMKQLEDKVEELLSKNYHLENEVARLRSPPLLVGVVSDILEDGRVVVKSSTGPKFVVNTSQYINEEELKPGARVALNQQTLAIVNVLPTSKDPMVYGFEVEE", "soluble on expression in E. coli": "soluble"}, {"sequence": "MGHHHHHHSHMAASTASQRPLKGILKDNTSTTSSMVASAEHPRGSVHEQLSKKSQKWDEMNILATYRPADKDYGLMKIDEPSTPYHSTMGDDEDACSDTETTEAMATDSLAKNLAAAEGLEPKYQVQEQESSGEEDSDLSPEEREKKRQFEMRRTLHYNEGLNIKLARQLISKDLHDDDKVEEMLETAHGESMNTEESNQGSTASDQQQNKSRSS", "soluble on expression in E. coli": "not soluble"}, {"sequence": "GPGSMYRSDTDERKRRQSVSWRKRASFIELDCGEDSFFVANNYKVIGVADGVGGWRAEGVDPSLFANALMENAKLFAETHRGERDPEKILDAAYTKVVKDGIVKVGSSTACVATLRKDDDGSHKLDVANLGDSGVMVVRNRSMYFRAHEKVHGFNAPFQLAVLPQPMVGRAFSDRVQDCVRESVPVQEGDVIVMGTDGLFDNRFNSQLAADAGWIGKVEESPIAKIPLVGFFLSGILDEKIDYVDPYRVAQRIITDAYKTSVNPDTNSPWASMLRQFGQTDAKGGKPDDITVLLSRVSTREELSNSTSW", "soluble on expression in E. coli": "not soluble"}, {"sequence": "MGSDKIHHHHHHMKLGYCSITWGGVVGHPGGVTSVKDLFYLTHGSMKDAIHDIASVGYEGVEMFDGNLAEYADKPEVLKELLNSSGVSLTSVYTGANFIYADILPDELHRIHRSAELAANFGADRLVVGGGARRAAGTTDEDYHRLGRALDSVTDIAESFGLSASYHPHLTTIVESPDELDKLMPLTRIGFCPDTAHLAAGGADPAAVIRKYPDRIRHVHLKDFRQDPFTFLPLGQGELDFPDILAAIRESGYDSWLMVELDNYDGDPREAAELSMKYLEKLL", "soluble on expression in E. coli": "not soluble"}, {"sequence": "MGHHHHHHSHMGVTCVSQMPVAEGKSVQQTVELLTRKLEMLGAEKQGTFCVDCETYHTAASTLGSQGQTGKLMYVMHNSEYPLSCFALFENGPCLIADTNFDVLMVKLKGFFQSAKASKIETRGTRYQYCDFLVKVGTVTMGPSARGISVEVEYGPCVVASDCWSLLLEFLQSFLGSHTPGAPAVFGNRHDAVYGPADTMVQYMELFNKIRKQQQVPVAGIR", "soluble on expression in E. coli": "soluble"}, {"sequence": "MKKTTLAMSALALSLGLALSPLSATAAETSSSAMTAQQMPSLAPMLEKVMPSVVSINVEGSTTVNTPRMPRNFQQFFGDDSPFCQDGSPFQNSPFCQGGGNGGNGGQQQKFMALGSGVIIDAAKGYVVTNNHVVDNASVIKVQLSDGRKFDAKVVGKDPRSDIALIQIQNPKNLTAIKLADSDALRVGDYTVAIGNPFGLGETVTSGIVSALGRSGLNVENYENFIQTDAAINRGNSGGALVNLNGELIGINTAILAPDGGNIGIGFAIPSNMVKNLTSQMVEYGQVKRGELGIMGTELNSELAKAMKVDAQRGAFVSQVMPNSSAAKAGIKAGDVITSLNGKPISSFAALRAQVGTMPVGSKISLGLLREGKAITVNLELQQSSQSQVDSSTIFSGIEGAEMSNKGQDKGVVVSSVKANSPAAQIGLKKGDVIIGANQQPVKNIAELRKILDSKPSVLALNIQRGDSSIYLLMQ", "soluble on expression in E. coli": "not soluble"}, {"sequence": "VADRLIVKGAREHNLRSVDLDLPRDALIVFTGLSGSGKSSLAFDTIFAEGQRRYVESLSAYARQFLGQMDKPDVDFIEGLSPAVSIDQKSTNRNPRSTVGTITEVYDYLRLLYARAGTPHCPTCGERVARQTPQQIVDQVLAMPEGTRFLVLAPVVRTRKGEFADLFDKLNAQGYSRVRVDGVVHPLTDPPKLKKQEKHDIEVVVDRLTVKAAAKRRLTDSVETALNLADGIVVLEFVDHELGAPHREQRFSEKLACPNGHALAVDDLEPRSFSFNSPYGACPECSGLGIRKEVDPELVVPDPDRTLAQGAVAPWSNGHTAEYFTRMMAGLGEALGFDVDTPWRKLPAKARKAILEGADEQVHVRYRNRYGRTRSYYADFEGVLAFLQRKMSQTESEQMKERYEGFMRDVPCPVCAGTRLKPEILAVTLAGESKGEHGAKSIAEVCELSIADCADFLNALTLGPREQAIAGQVLKEIRSRLGFLLDVGLEYLSLSRAAATLSGGEAQRIRLATQIGSGLVGVLYVLDEPSIGLHQRDNRRLIETLTRLRDLGNTLIVVEHDEDTIEHADWIVDIGPGAGEHGGRIVHSGPYDELLRNKDSITGAYLSGRESIEIPAIRRSVDPRRQLTVVGAREHNLRGIDVSFPLGVLTSVTGVSGSGKSTLVNDILAAVLANRLNGARQVPGRHTRVTGLDYLDKLVRVDQSPIGRTPRSNPATYTGVFDKIRTLFAATTEAKVRGYQPGRFSFNVKGGRCEACTGDGTIKIEMNFLPDVYVPCEVCQGARYNRETLEVHYKGKTVSEVLDMSIEEAAEFFEPIAGVHRYLRTLVDVGLGYVRLGQPAPTLSGGEAQRVKLASELQKRSTGRTVYILDEPTTGLHFDDIRKLLNVINGLVDKGNTVIVIEHNLDVIKTSDWIIDLGPEGGAGGGTVVAQGTPEDVAAVPASYTGKFLAEVVGGGASAATSRSNRRRNVSA", "soluble on expression in E. coli": "not soluble"}, {"sequence": "MSPWERILLEEILSEPVRLVKERVRTHTGRELTYVYRPGPVAASFVLPVTERGTALLVRQYRHPTGKFLLEVPAGKVDEGETPEAAARRELREEVGAEAETLIPLPSFHPQPSFTAVVFHPFLALKARVVTPPTLEEGELLESLELPLTEVYALLAKGEIQDASTALTLFYAEPHLKRLGLL", "soluble on expression in E. coli": "soluble"}, {"sequence": "MAIVNATDQTFAAETKDGLTLVDFWAPWCGPCRMIAPVLEELDREMGDKVKIVKVNVDENQETASKFGVMSIPTLLVFKNGELVDKAIGYQPKEALVQLVGKHVS", "soluble on expression in E. coli": "soluble"}, {"sequence": "MTTLGTPVSLGRRTRTGRLELEFGVRHGQTALLRDLQKAPLMVVRPFRLPCGTLMVFIVNPTGGVLGGDHSEIHVEAGAGTRVLILTQSATRVQPSPGGEWATQELHFHVGVGARLEYYPERTLPFAGSRFRQHLRADLGAGAEFGLLETLASGRVQMGERLAWADYRSEVSVYAAQERVYLDRQHFRPGPHSRAPGVLGGNDYFASGVWVAGDSAAGRPAAESPTTAPGWASGLSAGGAVWARGVAATGPALDHAARQLREQVRHDLFGAAPLVLRRLEHHHHHH", "soluble on expression in E. coli": "not soluble"}, {"sequence": "MGSDKIHHHHHHMIRVLSVFGTRPEAIKMAPLVKKLEEEQNVESLVCVTAQHRQMLDQVLEVFDIKPDFDLNIMKERQNLSDITVNALSGLYDLIGELKPDIVLVQGDTTTTFAGALAAFYHRIPVGHVEAGLRTNDRYSPFPEEINRRLTGVLSTLHFAPTKRNRENLLKENVMGKIYVTGNTVIDALRYTVKENHVFEDPILRNMDFSDGRYILLTSHRRENIGKPLENICRAVRRIVEGFEDVKVIYPVHMNPAVREIVFPMLENVERVFLIDPVNVIDMHNLMARSYLIMTDSGGIQEEAPALGKPVIVLRKETERPEAIEAGVAVLGGVEEERIFELAKKLLVDREEYEKMAKAVNPFGDGRASERIVKAILHEFGLSDPPEEFC", "soluble on expression in E. coli": "not soluble"}, {"sequence": "MGSDKIHHHHHHMATQRGTTAPPQTGSEQTGSVAGAGNARASLGVDGAVRLATSSVTTQSYAREFARLFNVDTAHTLTTTSLKTAQLTATHMCSSVHGLGKSTPLPTEDAYILSLQLQHSGGAELWKRGRRVPTEPYAPGSIMLGHLSDEPVANLPDPFECILFHIPRPAFDELCGLSALPPVGELDDVNRTIDPVLHHLGLALVPAMADPQLAGSLFFDHVAHAMYERLATTYGRFRGTLPPRGRVLSKTQERIAKELLVADLLVEPPLSDIALACGLSVRQFVDAFRSTTGMPPFRWLRAYRIERAKELLRRTSFSLAEIGAACGFADQSHFTRTFSAATGTTPGDWRRACGA", "soluble on expression in E. coli": "not soluble"}, {"sequence": "MGSDKIHHHHHHMRDRTVEIMWQAIDALDFSRIKAKLSHQKQVQWTPESLESAEAGYRQFLKMAAKYPGVPAVPSEQVDAFWHAHILDTRRYASDCVNIFGHVLHHDPYVGIDGPEDEARLFEMAAQSDVLSMREFGSPLTSASYFAQAAADEPAYCAREATAAEPAYCARMAKGPSYCARMGKALEPAYCAREATANEVVKRDHAAGGQAAYCALTLSQPASC", "soluble on expression in E. coli": "not soluble"}, {"sequence": "MEKELVFAGFGGQGVLTLGLIVAESALELGKQVTWMPAYGPTMRGGKAYSVVKFSDESIGGPDMEEIDVLVAMNKPSLDYINLVKEGGTVVINTSAIDENVTLREDISVVKINCQELAQKVNNPK", "soluble on expression in E. coli": "not soluble"}, {"sequence": "YESIDLKAVLFDMDGVLFDSMPNHAESWHKIMKRFGFGLSREEAYMHEGRTGASTINIVSRRERGHDATEEEIKAIYQAKTEEFNKCPKAERMPGALEVLTKIKSEGLTPMVVTGSGQTSLLDRLNHNFPGIFQANLMVTAFDVKYGKPNPEPYLMALKKGGFKPNEALVIENAPLGVQAGVAAGIFTIAVNTGPLHDNVLLNEGANLLFHSMPDFNKNWETLQSALKQ", "soluble on expression in E. coli": "not soluble"}, {"sequence": "MGSDKIHHHHHHMLKTKTALTLSDKNYYSTEADWHYMSVSQYKNFNECEAATIARLKKIWLPCSDPKALLVGNYVHSYFESSKIHDLFKKENKDKMFSSRKPYGLLKDFQIAEQMIQRLKEEPAFMNLYKGEKEVIVTGQIENVNWKGKIDCLNLEDGYFVDIKTTKDIHERKWNDSYAERCTFIENYGYVLQMAVYKELLSQKYNREFVPIIAAVSKQTPSEVKLITLDEDKMHFEMIQLKENIEHIIKVKNGEEKPTLCGRCEYCRGQQRITHFTNMNDL", "soluble on expression in E. coli": "not soluble"}, {"sequence": "IVSREAKLQFAYLENFKTKMRSTVSVREGQGVVLLCGPPPHSGELSYAWIFNEYPSFVEEDSRRFVSQETGHLYISKVEPSDVGNYTCVVTSMVTNARVLGSPTPLVLRSDGVMGEYEPKIEVQFPETLPAAKGSTVKLECFALGNPIPQINWRRSDGLPFSSKIKLRKFSGVLEIPNFQQEDAGSYECIAENSRGKNVARGRLTYYAKPHWVQLIKDVEIAVEDSLYWECRASGKPKPSYRWLKNGAALVLEERTQIENGALTISNLSVTDSGMFQCIAENKHGLVYSSAELKVVASAPDFSKNPMKKLVQVQVGSLVSLDCKPRASPRALSSWKKGDVSVQEHERISLLNDGGLKIANVTKADAGTYTCMAENQFGKANGTTHLVVTEPTRITLAPSNMDVSVGESVILPCQVQHDPLLDIIFTWYFNGALADFKKDGSHFEKVGGSSSGDLMIRNIQLKHSGKYVCMVQTGVDSVSSAADLIVRGSPGPPENVKVDEITDTTAQLSWKEGKDNHSPVISYSIQARTPFSVGWQTVTTVPEVIDGKTHTATVVELNPWVEYEFRVVASNKIGGGEPSLPSEKVRTEEAVPEVPPSEVNGGGGSRSELVITWDPVPEELQNGEGFGYVVAFRPLGVTTWIQTVVTSPDTPRYVFRNESIVPYSPYEVKVGVYNNKGEGPFSPVTTVFSAEEEPTVAPSQVSANSLSSSEIEVSWNTIPWKLSNGHLLGYEVRYWNGGGKEESSSKMKVAGNETSARLRGLKSNLAYYTAVRAYNSAGAGPFSATVNVTTKKTPPSQPPGNVVWNATDTKVLLNWEQVKAMENESEVTGYKVFYRTSSQNNVQVLNTNKTSAELVLPIKEDYIIEVKATTDGGDGTSSEQIRIPRITSMDARGSTSAISNVHPMSSYMPIVLFLIVYVLW", "soluble on expression in E. coli": "soluble"}]}]}
